# Reference: patent publication US20220267469A1 (LIPUM, published 2022)
# Changes are numbered by the printed parent chain. Names may count otherwise.
# T1: Mouse BSSL, recombinant (mouse, UniProt Q64285 21-599)
# T1 construct: Bought (R&D Systems, Cat. no 5658-CE); also called mBSSL; murine BSSL
# T1 sequence: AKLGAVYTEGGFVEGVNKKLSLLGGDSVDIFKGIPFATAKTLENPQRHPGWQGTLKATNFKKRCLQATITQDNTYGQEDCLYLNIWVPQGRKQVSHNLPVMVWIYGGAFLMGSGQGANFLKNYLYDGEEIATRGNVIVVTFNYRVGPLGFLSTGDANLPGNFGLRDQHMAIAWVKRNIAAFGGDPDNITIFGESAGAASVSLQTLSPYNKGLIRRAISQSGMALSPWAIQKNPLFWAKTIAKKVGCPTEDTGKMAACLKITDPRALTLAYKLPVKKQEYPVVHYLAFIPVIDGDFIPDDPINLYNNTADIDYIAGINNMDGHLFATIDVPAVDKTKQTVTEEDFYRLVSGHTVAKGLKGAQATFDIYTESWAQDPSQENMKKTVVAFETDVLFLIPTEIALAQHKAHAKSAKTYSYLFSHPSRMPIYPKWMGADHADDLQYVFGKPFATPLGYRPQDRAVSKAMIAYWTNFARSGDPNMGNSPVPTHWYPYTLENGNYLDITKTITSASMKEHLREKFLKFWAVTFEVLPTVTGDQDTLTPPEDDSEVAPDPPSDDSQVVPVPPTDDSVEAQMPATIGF
# T2: Human BSSL (bile salt-stimulated lipase), native (human, UniProt P19835 21-753)
# T2 construct: Native full-length protein purified from human milk (Astra Hässle AB); also called hBSSL; non-biotinylated human BSSL
# T2 sequence: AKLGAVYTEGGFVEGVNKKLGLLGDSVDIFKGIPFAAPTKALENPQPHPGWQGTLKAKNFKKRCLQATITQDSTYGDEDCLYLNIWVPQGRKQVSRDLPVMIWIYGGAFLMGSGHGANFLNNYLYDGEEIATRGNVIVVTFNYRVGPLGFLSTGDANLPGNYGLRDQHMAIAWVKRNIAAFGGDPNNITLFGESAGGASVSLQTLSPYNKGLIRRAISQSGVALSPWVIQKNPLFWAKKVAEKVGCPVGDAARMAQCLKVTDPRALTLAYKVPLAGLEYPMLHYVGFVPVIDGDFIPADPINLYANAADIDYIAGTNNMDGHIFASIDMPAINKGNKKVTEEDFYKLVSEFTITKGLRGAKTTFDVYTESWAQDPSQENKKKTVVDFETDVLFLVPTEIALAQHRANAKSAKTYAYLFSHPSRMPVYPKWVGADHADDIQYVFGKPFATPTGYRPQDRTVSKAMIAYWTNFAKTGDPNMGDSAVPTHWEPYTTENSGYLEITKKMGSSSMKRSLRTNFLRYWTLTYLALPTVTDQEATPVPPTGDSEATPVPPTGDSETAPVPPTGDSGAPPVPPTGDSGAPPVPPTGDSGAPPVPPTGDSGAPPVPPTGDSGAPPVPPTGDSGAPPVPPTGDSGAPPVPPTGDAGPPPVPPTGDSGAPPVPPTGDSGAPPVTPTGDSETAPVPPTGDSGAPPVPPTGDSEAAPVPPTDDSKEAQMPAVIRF
# T3: Biotinylated human BSSL (human, UniProt P19835 21-753, Biotinylated on glycosacarides, 30-40 biotin/BSSL)
# T3 construct: hBSSL biotinylated in house; also called b-hBSSL; human BSSL-biotin
# T3 sequence: T2 sequence
# B1: S-SL048-14 hIgG4 S228P (antibody, V domains shown)
# VH: QVQLVQSGAEVKKPGASVKVSCKASGYTFTSYNMHWVRQAPGQGLEWMGVINPGDGATSYAQKFKGRVTMTRDTSTSTVYMELSSLRSEDTAVYYCARDYYGSSPLGYWGQGTLVTVSS
# VL: DIQMTQSPSSLSASVGDRVTITCRASPSISYLNWYQQKPGKAPKLLIYATSRLPSGVPSRFSGSGSGTDFTLTISSLQPEDFATYYCQQRSSSPTFGQGTKLEIK
# notes: Tested as human IgG4 S228P
# B2: S-SL048-74 hIgG4 S228P (antibody, V domains shown)
# VH: B1 VH with M48I, K65Q
# VL: B1 VL with P27Q, T50A, R52S, P54A, Q88H
# notes: Tested as human IgG4 S228P
# B3: S-SL048-65 hIgG4 S228P (antibody, V domains shown)
# VH: B1 VH with M48I
# VL: B1 VL with R24S, P27Q, A49D, T50A, R52S, Q88H
# notes: Tested as human IgG4 S228P
# B4: S-SL048-109 hIgG4 S228P (antibody, V domains shown)
# VH: B1 VH with G54S
# VL: B1 VL with P54A
# notes: Tested as human IgG4 S228P
# B5: S-SL048-131 hIgG4 S228P (antibody, V domains shown)
# VH: B1 VH with M48I
# VL: B1 VL with T50A, R52K, P54A, Q88H
# notes: Tested as human IgG4 S228P
# B6: S-SL048-41 hIgG4 S228P (antibody, V domains shown)
# VH: B1 VH with M48I, N52Y
# VL: B1 VL with P27S, L32M, Q88H
# notes: Tested as human IgG4 S228P
# B7: S-SL048-38 hIgG4 S228P (antibody, V domains shown)
# VH: B1 VH with K65Q
# VL: B1 VL with R52S, P54A
# notes: Tested as human IgG4 S228P
# B8: S-SL048-40 hIgG4 S228P (antibody, V domains shown)
# VH: B1 VH with M48I, G54S, K65Q
# VL: B1 VL with P27S, T50A
# notes: Tested as human IgG4 S228P
# B9: S-SL048-125 hIgG4 S228P (antibody, V domains shown)
# VH: B1 VH with M48I, K65Q
# VL: B1 VL with P27S, N33H, T50A, Q88H, S93Y
# notes: Tested as human IgG4 S228P
# B10: S-SL048-103 hIgG4 S228P (antibody, V domains shown)
# VH: B1 VH
# VL: B1 VL with P27S, L32M, N33H, R52S, P54A, Q88H
# notes: Tested as human IgG4 S228P
# B11: S-SL048-48 hIgG4 S228P (antibody, V domains shown)
# VH: B1 VH with M48I, K65Q
# VL: B1 VL with L32M, P54Q, Q88H
# notes: Tested as human IgG4 S228P
# Molecular target: T1, Mouse BSSL, recombinant
# Experiment: SPR steady state, hIgG4 S228P captured by anti-Fab
# Experimental: (§1) Kinetic parameters of the hIgG4 S228P clones were determined by SPR using BIACORE® T200 (GE Healthcare). Single cycle kinetics was used to measure the affinity of the purified hIgG4 molecules to human and mouse BSSL. An anti-Fab antibody (GE Healthcare, #28958325) was immobilized on a CM5 S sensor chip by primary amine coupling using NHS-EDC chemistry. hIgG4 was captured by the anti-Fab antibody, and subsequently, five different concentrations of hBSSL (1:5 dilutions starting from 50 nM) or mBSSL (1:5 dilutions starting from 500 nM) were injected over the surface. The sensor chip surface was regenerated with 10 mM glycine-HCl pH 2.1. For binding to human BSSL, single cycle kinetic data was fitted to a 1:1 binding model and kinetic parameters were retrieved using software BlAevaluation. For mouse BSSL, a steady state analysis was performed by plotting the response level at equilibrium against each concentration, and KD values were retrieved by the BlAevalution software.
row,Binder,Kd
1,B1,89 nM
2,B2,21 nM
3,B3,30 nM
4,B4,353 nM
5,B5,63 nM
6,B6,79 nM
7,B7,67 nM
8,B8,87 nM
9,B9,123 nM
10,B10,199 nM
11,B11,41 nM

# Molecular target: T2, Human BSSL (bile salt-stimulated …)
# Experiment: SPR single cycle kinetics, hIgG4 S228P captured by anti-Fab
# Experimental: as §1
row,Binder,Kd
1,B1,0.9 nM
2,B2,4.8 nM
3,B4,1.4 nM
4,B5,2.7 nM
5,B6,1.2 nM
6,B7,1 nM
7,B8,1 nM
8,B9,2.1 nM
9,B10,1.7 nM
10,B11,0.8 nM

# Molecular target: T3, Biotinylated human BSSL
# Experiment: flow cytometry displacement assay; 0.5 ug antibody, 1 ug b-hBSSL
# Experimental: (§2) The 28 BSSL-specific hIgG4 antibodies and the five reference antibodies at different concentrations (ranging from 0.5 μg to 3.0 μg per reaction; see Table 10) were added to b-hBSSL (1 μg per reaction, see Table 2) in round-bottom polystyrene tubes, lx PBS (pH 7.4) was added to a final volume of 20 μl and the antibody/b-hBSSL mixtures were incubated for 30 min. at +4° C. to facilitate binding of antibodies to BSSL. Buffy coat (50 μl) was then added to each antibody/b-hBSSL mixture and incubation continued for another 30 min at +4° C. Thereafter, 2 ml of FACS lysing solution (BD Biosciences) was added and the cells were incubated for 10 min at room temperature in order to lyse erythrocytes and fix the white blood cells. The cells were then centrifuged for 5 min. at 200×g, the resulting pellets were washed by adding 2 ml of FACS buffer (1×PBS supplemented with 1% FCS and 0.1% NaN3) and centrifuged again. Finally, the supernatants were discarded and the cells were resuspended in the last drop of liquid, approximately 50 μl.
# (§3) 5 μl of BV421-labelled anti-human CD14 (BD Biosciences) and 5 μl of BB515-labelled streptavidin (BD Biosciences) was added to each tube and incubated for 30 min, at +4° C., protected from light. Thereafter, cells were washed twice with FACS buffer, resuspended in 500 μl FACS buffer, and run on BD LSRII flow cytometer (BD Biosciences). Finally, data were analyzed using FlowJo software (BD Biosciences).
row,Binder,percentage reduction of b-hBSSL binding to CD14+ monocytes
1,B1,11%
2,B3,5%
3,B6,12%
4,B7,6%
5,B8,20%
6,B10,12%
7,B11,28%

# Molecular target: T3, Biotinylated human BSSL
# Experiment: flow cytometry displacement assay; 1.0 ug antibody, 1 ug b-hBSSL
# Experimental: as §2, §3
row,Binder,percentage reduction of b-hBSSL binding to CD14+ monocytes
1,B1,32%
2,B3,23%
3,B6,29%
4,B7,44%
5,B8,28%
6,B10,-1%
7,B11,23%

# Molecular target: T3, Biotinylated human BSSL
# Experiment: flow cytometry displacement assay; 1.5 ug antibody, 1 ug b-hBSSL
# Experimental: as §2, §3
row,Binder,percentage reduction of b-hBSSL binding to CD14+ monocytes
1,B1,48%
2,B2,29%
3,B3,21%
4,B4,38%
5,B5,31%
6,B6,51%
7,B7,52%
8,B8,44%
9,B9,9%
10,B10,26%
11,B11,50%

# Molecular target: T3, Biotinylated human BSSL
# Experiment: flow cytometry displacement assay; 2.0 ug antibody, 1 ug b-hBSSL
# Experimental: as §2, §3
row,Binder,percentage reduction of b-hBSSL binding to CD14+ monocytes
1,B3,35%
2,B6,71%
3,B11,61%

# Molecular target: T3, Biotinylated human BSSL
# Experiment: flow cytometry displacement assay; 3.0 ug antibody, 1 ug b-hBSSL
# Experimental: as §2, §3
row,Binder,percentage reduction of b-hBSSL binding to CD14+ monocytes
1,B1,56%
2,B2,52%
3,B3,39%
4,B4,51%
5,B5,58%
6,B6,72%
7,B7,51%
8,B8,53%
9,B9,33%
10,B10,69%
11,B11,68%
